{"source": "the nanobody polyreactivity screen of Harvey et al. (2022)"}
{"assay": "yeast display, Sf9 membrane polyspecificity reagent, FACS + sequencing; frameworks hold sequencing errors", "outline": "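A synthetic nanobody library was expressed on Saccharomyces cerevisiae BJ5465 by galactose induction for 36–48 hours. The library was stained for 1 hour at 4 °C with 10% biotinylated, detergent-solubilized Sf9 membrane reagent and enriched with streptavidin microbeads before FACS. Low and high (top ~1%) gates were set on anti-HA fluorescence for expression and streptavidin fluorescence for reagent binding, and each polyreactivity label reflects the gate of origin.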"}
{"sequence": "QVQLVESGGGLVQAGGSLRLICAASGSIFDYNAMGWYRQAPGKERELVAAITSTDSTYADSVKGRFTISRDNAKNTVYLQMNSLKPEDTAVYYCNARYLAWTYYYPYDYWGQGTQVTVSS", "polyreactivity (PSR sort gate)": "low polyreactivity"}
{"sequence": "QVQLVESGGGLVQAGGSLRLICAASGSIFFWYTMGWYRQAPGKERELVATITGSGSSTTYADSVKGRFTISRDNAKYTVYLQMNSLKPEDTAVYYCAAADIIDHSFPYDYWGQGTQVTVSS", "polyreactivity (PSR sort gate)": "low polyreactivity"}
{"sequence": "QVQLVESGGGLVQAGGSLRLICAASGSIFHIYMGWYRQAPGKEMEVVASISYRGGTTYYADSVKGRFTISRDNAKNSVYFQMNSLKPEDTAVYYCNVDRYFYHYGRYGHMDYWGQATQVTVSS", "polyreactivity (PSR sort gate)": "low polyreactivity"}
{"sequence": "QVQLVESGGGLVQAGGSLRLICAASGSIFLHYGMGWYRQAPGKERELVAAISWRCRSTYYADSVKGRFTISRDNAKNTVYLQMNSLKPEDTAVYYCNAEYAFPLSGSGYWGQGTQVTVSS", "polyreactivity (PSR sort gate)": "low polyreactivity"}
{"sequence": "QVQLVESGGGLVQAGGSLRLICAASGSIFLQYTMGWYRQAPGKERELVAAITESDGSTYYADSVKGRFTISRDNAKNTVYLQMNSLKPEDTGVYYCAAEVVYFKYWDKYDYWGQGTQVTVSS", "polyreactivity (PSR sort gate)": "low polyreactivity"}
{"sequence": "QVQLVESGGGLVQAGGSLRLICAASGSIFRINAMGWYRQAPGKEMELVAAITGRVGSTYYADSVKGRFTISRDNAKNTVYLQMNSLKPEDTAVYYCAARAGSSRYTREYRYDYWGQGTQVTVSS", "polyreactivity (PSR sort gate)": "high polyreactivity"}
{"sequence": "QVQLVESGGGLVQAGGSLRLICAASGSIFTIYAMGWYRQAPGKERELVAAISYSDTSTYYADSVKGRFTISRDNAKNTVYLQMNSLKPEDTAVYYCAAEDLWYIAYWDDMDYWGQGTQVTVSS", "polyreactivity (PSR sort gate)": "low polyreactivity"}
{"sequence": "QVQLVESGGGLVQAGGSLRLICAASGSIFTRNAMGWYRQAPGKEREFVAAISSSGVSTYYADSVKGRFTISRDNAKNTVYLQMISLKPEDTAVYYCAARWGTKSGRYDYWGQGTQVTVSS", "polyreactivity (PSR sort gate)": "high polyreactivity"}
{"sequence": "QVQLVESGGGLVQAGGSLRLICAASGSIFYHNGMGWYRQAPGKERELVAGISSTGSTYYADSVKGRVTLSRDNAKNTVYLQMNSLKPEDTAVYYCATDFGDIGDDAHSLGYDYWGQGTQVTVSS", "polyreactivity (PSR sort gate)": "low polyreactivity"}
{"sequence": "QVQLVESGGGLVQAGGSLRLICAASGSIFYRNAMGWYRQAPGKERELVAAISSDGSTNYADSVKGRFTISRDNAKNTVYLQMNSLKPEDTAVYYCAAPWTQILDYWGQGTQVTVSS", "polyreactivity (PSR sort gate)": "low polyreactivity"}
{"sequence": "QVQLVESGGGLVQAGGSLRLICAASGSIFYRYAMGWYRQAHGKEREFVAAITYSSRTTYYADSVQGRFTISRDNAKNTVYLQMNSLKPEDTAVYYCAAELSSSYYRRAMDYCGQGTQVTVSS", "polyreactivity (PSR sort gate)": "high polyreactivity"}
{"sequence": "QVQLVESGGGLVQAGGSLRLICAASGSIIGVNAMGWYRQAPGKERELVAAITSTGGSTYYADSVKGRFTISRDNAKNTVYLKMNSLKPEDTAVYYCNTHYSKSIGEGYAGFDYWGQGTQVTVSS", "polyreactivity (PSR sort gate)": "low polyreactivity"}
{"sequence": "QVQLVESGGGLVQAGGSLRLICAASGSILTHYAMGWYRQAPGKERELVAAITWRGGSTYYADSVKGRFTISRDNAKNTVYLQMNSLKPEDTAVYYCNADYFGGGDYWGQGTQVTVSS", "polyreactivity (PSR sort gate)": "low polyreactivity"}
{"sequence": "QVQLVESGGGLVQAGGSLRLICAASGSTFAIYAMGWYRPAPGKERELVAAITGRSGSTYYADSVKGRFTISRDNAKNTVFLQMNSLKPEDTAVYYCAAQGGYRRTPYIHRDYWGQGTQVTVSS", "polyreactivity (PSR sort gate)": "high polyreactivity"}
{"sequence": "QVQLVESGGGLVQAGGSLRLICAASGSTFGFNAMGWSRQAPGKERELLPLLWSGGSTYYADSVKGRFTISRDNAKNTVYLQMNSLIPEDTAVYYCNKDSPPITRYDYWGQGTQVTVSS", "polyreactivity (PSR sort gate)": "low polyreactivity"}
{"sequence": "QVQLVESGGGLVQAGGSLRLICAASGSTFGYYAMGWYRKAPGKERELVAVITYSGGSTYYADSVKGRFTISRDNAKNTVNLQMNSLKPEDTSVYYCSAVIGVWYYYTYDYWGQGTQVTVSS", "polyreactivity (PSR sort gate)": "low polyreactivity"}
{"sequence": "QVQLVESGGGLVQAGGSLRLICAASGSTFHAYAMGWYRQAPGKEREMVAAISWRGGSTYYADSVKGRFTISRDNAKNTVYLQMNSLKPEDTAVYYCAASVQGLFGTSGMEGVDYWGQGTQVTVSS", "polyreactivity (PSR sort gate)": "high polyreactivity"}
